In PMC6189496, “Epstein-Barr Virus Nuclear Antigen 3C Inhibits Expression of COBLL1 and the ADAM28-ADAMDEC1 Locus via Interaction with the Histone Lysine Demethylase KDM2B” (Journal of Virology, 2018):
Residue numbers refer to the chain shown, from its start. Numbers in names are those of the source.

T1: histone lysine demethylase KDM2B (human (endogenous in LCLs), UniProt Q8NHM5 1-1336)
T1 construct: KDM2B, endogenous in lymphoblastoid cell lines, immunoprecipitated with anti-KDM2B (09-864; Millipore); also called FBXL10; JHDM1B; source: endogenous, LCL lysate
T1 sequence (looked up): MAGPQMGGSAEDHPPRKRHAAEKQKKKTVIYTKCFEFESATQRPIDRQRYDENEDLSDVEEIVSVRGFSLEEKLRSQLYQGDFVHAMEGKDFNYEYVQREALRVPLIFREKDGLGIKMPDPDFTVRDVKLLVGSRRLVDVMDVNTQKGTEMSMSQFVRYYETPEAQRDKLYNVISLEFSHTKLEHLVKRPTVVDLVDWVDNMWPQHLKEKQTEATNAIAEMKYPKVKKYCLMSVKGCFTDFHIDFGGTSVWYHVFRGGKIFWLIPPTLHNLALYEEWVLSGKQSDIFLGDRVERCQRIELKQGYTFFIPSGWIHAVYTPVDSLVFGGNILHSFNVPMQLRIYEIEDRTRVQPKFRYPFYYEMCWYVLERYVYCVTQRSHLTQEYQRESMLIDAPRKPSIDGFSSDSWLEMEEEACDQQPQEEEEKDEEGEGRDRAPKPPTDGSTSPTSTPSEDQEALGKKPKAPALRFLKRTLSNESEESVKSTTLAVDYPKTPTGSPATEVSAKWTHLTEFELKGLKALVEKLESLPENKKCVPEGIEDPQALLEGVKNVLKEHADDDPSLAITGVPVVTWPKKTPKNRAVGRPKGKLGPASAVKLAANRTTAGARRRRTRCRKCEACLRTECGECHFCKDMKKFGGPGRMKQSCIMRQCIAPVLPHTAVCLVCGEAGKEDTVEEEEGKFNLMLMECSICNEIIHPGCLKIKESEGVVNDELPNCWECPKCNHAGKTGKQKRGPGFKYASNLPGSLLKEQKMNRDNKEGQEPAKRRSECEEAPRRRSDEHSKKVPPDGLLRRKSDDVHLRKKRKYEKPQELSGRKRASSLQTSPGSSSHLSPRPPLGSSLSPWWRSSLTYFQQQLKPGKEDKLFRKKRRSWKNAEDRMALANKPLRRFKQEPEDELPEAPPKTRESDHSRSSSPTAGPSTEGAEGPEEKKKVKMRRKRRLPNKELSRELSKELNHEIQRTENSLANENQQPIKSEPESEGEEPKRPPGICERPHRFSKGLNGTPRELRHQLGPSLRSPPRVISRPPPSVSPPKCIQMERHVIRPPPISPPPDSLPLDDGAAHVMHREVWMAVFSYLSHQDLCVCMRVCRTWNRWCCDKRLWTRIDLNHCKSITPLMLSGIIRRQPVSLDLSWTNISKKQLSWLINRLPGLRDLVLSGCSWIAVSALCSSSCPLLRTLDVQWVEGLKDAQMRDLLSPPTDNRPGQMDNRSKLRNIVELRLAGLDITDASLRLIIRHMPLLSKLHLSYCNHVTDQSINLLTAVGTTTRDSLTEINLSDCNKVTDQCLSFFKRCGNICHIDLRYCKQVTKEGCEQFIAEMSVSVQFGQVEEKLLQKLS

T2: BMI1 (human (endogenous in LCLs), UniProt P35226 1-326)
T2 construct: BMI1, endogenous in lymphoblastoid cell lines, immunoprecipitated with anti-BMI1 (A301-694A; Bethyl); also called PRC1 core component BMI1; source: endogenous, LCL lysate
T2 sequence (looked up): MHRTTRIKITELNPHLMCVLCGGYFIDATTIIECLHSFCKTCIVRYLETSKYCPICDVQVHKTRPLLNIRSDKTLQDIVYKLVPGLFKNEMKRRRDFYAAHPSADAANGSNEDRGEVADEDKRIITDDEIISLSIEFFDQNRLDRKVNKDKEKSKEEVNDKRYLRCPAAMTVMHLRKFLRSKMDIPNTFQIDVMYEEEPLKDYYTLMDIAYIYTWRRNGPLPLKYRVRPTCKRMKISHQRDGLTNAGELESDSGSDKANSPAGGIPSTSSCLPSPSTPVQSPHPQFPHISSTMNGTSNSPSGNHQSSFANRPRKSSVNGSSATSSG

B1: EBNA3C HDmut (209TFGC212 mutated to 209AAAA212) (natural protein)
chain: MESFEGQGDSRQSPDNERGDNVQTTGEHDQDPGPGPPSSGASERLVPEESYSRDQQPWGQSRGDENRGWMQRIRRRRRRRAALSGHLLDTEDNVPPWLPPHDITPYTARNIRDAACRAVKQSHLQALSNLILDSGLDTQHILCFVMAARQRLQDIRRGPLVAEGGVGWRHWLLTSPSQSWPMGYRTATLRTLTPVPNRVGADSIMLTAAAAAQNAARTLNTFSATVWTPPHAGPREQERYAREAEVRFLRGKWQRRYRRIYDLIELCGSLHHIWQNLLQTEENLLDFVRFMGVMSSCNNPAVNYWFHKTIGNFKPYYPWNAPPNENPYHARRGIKEHVIQNAFRKAQIQGLSMLATGGEPRGDATSETSSDEDTGRQGSDVELESSDDELPYIDPNMEPVQQRPVMFVSRVPAKKPRKLPWPTPKTHPVKRTNVKTSDRSDKAEAQSTPERPGPSEQSSVTVEPAHPTPVEMPMVILHQPPPVPKPVPVKPTPPPSRRRRGACVVYDDDVIEVIDVETTEDSSSVSQPNKPHRKHQDGFQRSGRRQKRAAPPTVSPSDTGPPAVGPPAAGPPAAGPPAAGPPAAGPPAAGPPAAGPRILAPLSAGPPAAGPHIVTPPSARPRIMAPPVVRMFMRERQLPQSTGRKPQCFWEMRAGREITQMQQEPSSHLQSATQPTTPRPSWAPSVCALSVMDAGKAQPIESSHLSSMSPTQPISHEEQPRYEDPDAPLDLSLHPDVAAQPAPQAPYQGYQEPPAPQAPYQGYQEPPPPQAPYQGYQEPPAHGLQSSSYPGYAGPWTPRSQHPCYRHPWAPWSQDPVHGHTQGPWDPRAPHLPPQWDGSAGHGQDQVSQFPHLQSETGPPRLQLSLVPLVSSSAPSWSSPQPRAPIRPIPTRFPPPPMPLQDSMAVGCDSSGTACPSMPFASDYSQGAFTPLDINATTPKRPRVEESSHGPARCSQATAEAQEILSDNSEISVFPKDAKQTDYDASTESELD
notes: EBNA3C of Epstein-Barr virus, strain B95.8, with the TFGC (homology domain) motif mutated to alanines; also called homology domain mutant
B2: EBNA3C W227S (natural protein)
chain: B1 chain with A209T, A210F, A211G, A212C, W227S
notes: EBNA3C of Epstein-Barr virus, strain B95.8, with W227S in the 226VWTP229 motif

Assays:
[1] = target: T1, histone lysine demethylase KDM2B; test: co-IP; LCL extracts (10^7 cells lysed in IP buffer, precleared); the cellular protein (RBPJ, BMI1, SUZ12 or KDM2B) immunoprecipitated from 200 ug lysate overnight at 4°C, protein G-Sepharose, four washes; Western blot for EBNA3C; isotype IgG control; mutants quantified by ImageJ as percent relative IP compared to EBNA3C WT; conditions: partners not purified
BMI1 = target: T2, BMI1; test: as above; conditions: partners not purified

| Binder | percent relative IP compared to EBNA3C WT [1] | percent relative IP compared to EBNA3C WT (BMI1) |
| --- | --- | --- |
| B1 | 8% | 60% |
| B2 | 80% | – |
